This note sets out measurements from patent US20250197505A1.

The target of assay [1] is human CD94 expressed on cells (human primary NK cells in PBMCs; HEK cells expressing human CD94) (human) (UniProt Q13241). The assay can be described thus: flow cytometry, PE HLA-E tetramer on NK cells of PBMCs pre-incubated with antibody; competitor HLA-E tetramer.
The target is the same in assay [2]. The assay can be described thus: flow cytometry titration on CD3-CD56+ NK cells in healthy donor PBMCs; 'Affinity on Human NK Cells'; the filing derives these affinities as EC50 of titration curves (the 2.6nM of 18H3 is labelled EC50 in FIG. 1).
The target is the same in assay [3]. The assay can be described thus: HLA-E tetramer blocking assay, flow cytometry on CD3-CD56+ NK cells in healthy donor PBMCs; antibody at one saturating concentration, blocked ligand PE-labelled HLA-E tetramer; percent blocking = 100-((percent HLA-E positive with antibody)/(percent HLA-E positive with isotype)*100).
Assay [4] has the same target. The assay can be described thus: competition assay, flow cytometry on CD3-CD56+ NK cells in healthy donor PBMCs; HP-3B1 titrated in the presence of Human IgG1 control (no competitor).
Assay [5] has the same target. Described as above. The source holds these as a separate data set.
For assay [6] the target is unchanged. The experiment in a line: competition assay, flow cytometry on CD3-CD56+ NK cells in healthy donor PBMCs; HP-3B1 titrated in the presence of Mouse IgG1 control (no competitor).
The target is the same in assay [7]. The experiment in a line: cell-based or functional assay.

Bounds are passed on as bounds.

Chain of human CD94 expressed on cells (human primary NK cells in PBMCs; HEK cells expressing human CD94) (human) (Q13241 whole entry): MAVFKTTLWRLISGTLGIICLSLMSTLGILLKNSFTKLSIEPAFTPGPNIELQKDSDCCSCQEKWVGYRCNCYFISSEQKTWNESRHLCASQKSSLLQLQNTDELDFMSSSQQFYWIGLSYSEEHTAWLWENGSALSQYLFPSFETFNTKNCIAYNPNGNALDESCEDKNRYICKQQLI

Substance “commercial anti-CD94 antibody clone 131412” displayed a percent HLA-E blocking in assay [1] above 40%. The substance also came in with an EC50 in assay [2] of 11 nM. The substance further had an HLA-E Blocking in assay [3] of 40%.
In assay [1], “commercial anti-CD94 antibody clone 12K45” gave a percent HLA-E blocking above 40%. Moreover, the EC50 in assay [2] came out at 7 nM. The HLA-E Blocking in assay [3] came out at 47%.
In assay [1], “commercial anti-CD94 antibody clone HP-3B1” yielded a percent HLA-E blocking above 40%. Also, the concentration giving a half-maximal response (EC50 (read off the curve)) in assay [4] was 2 nM; in assay [5], 3 nM; in assay [6], 2 nM. Also, in assay [2], the EC50 was 3 nM. In assay [3], the HLA-E Blocking amounted to 99.8%.
In assay [7], “commercial anti-CD94 antibody clone DX22” registered a percent decrease in MFI (antibody internalization assay), comparing 0.5 hours to 24 hours at 37° C. of 56%. The percent HLA-E blocking in assay [1] was above 40%. Also, in assay [2], the EC50 is 0.15 nM. This substance also displayed an HLA-E Blocking in assay [3] of 99%.
As for “commercial anti-CD94 antibody clone HP-3D9”, in assay [7], the percent decrease in MFI (antibody internalization assay), comparing 0.5 hours to 24 hours at 37° C. is 54%. The substance also displayed a percent HLA-E blocking in assay [1] above 40%. The substance also had an EC50 in assay [2] of 0.07 nM. Besides, the HLA-E Blocking in assay [3] came out at 99%.
